Data on one substance can be found in article PMC12476982.

Some test systems named below: cBAF (ARID1A) (human); PBAF (human); ncBAF (human); BRG1 (human).
Holding throughout (test): fluorescence polarization
Details in all cases: FP: 10 nM Cy5 nucleosome in Buffer B (composition not in material) except 60 mM NaCl, quadratic fit, EMSA: 15 nM nucleosome, 15 min, room …

pKd: −log10 of the molar value.

A word on the pKd: it is the Kd on a negative log10 scale, so that one unit is a factor of ten. On to Cy5 mononucleosome, 197-bp 601 DNA, for which the negative logarithm of the Kd (pKd) is 7.35 in the series with cBAF (ARID1A) (human), 7.09 in the series on PBAF (human), 7.77 in the series with ncBAF (human) and 6.94 with BRG1 (human).
